Data set [1] deals with Colorectal cancer biopsies. Put plainly: IHC staining of patient tumor biopsies with NEO-101. The class given is binding, human. The method, then:
(§1) Patients enrolled on the clinical diagnostic study agreed to provide their tumor biopsy or surgical specimen to be stained immunohistochemically with NEO-101. Tumor sections were prepared as slides, and two additional slides were prepared for negative control (human IgG1) and positive control (cytokeratin) staining to ensure quality controls for the IHC method. More specifically, tumor biopsy specimens from colorectal and pancreas cancer patients were deparaffinized at about 60° C. for 30 min prior to staining with NEO-101. Subsequently, all staining steps were carried out at about 25° C. Slides (4 μm) were blocked with Peroxo-Bloc® inhibitor (Zymed Laboratories) for about 2 min, rinsed with phosphate-buffered saline (PBS), and blocked with CAS (Zymed) for an additional about 10 minutes. Slides were stained with about 10 μg/mL of biotin-labeled NEO-101 for 1 hour, and washed three times with PBS containing 0.05% Tween®-20 non-ionic detergent. […] A 1:400 dilution of peroxidase-conjugated streptavidin (Dako North America, Inc.) was then applied to the slides for about 30 minutes and slides were washed three times. A solution of DAB (Zymed) was applied for about 2-3 minutes then rinsed with PBS. A solution of hematoxylin was then applied for about 3 minutes and rinsed with tap water until clear. The slides were dehydrated with xylene and a coverslip was added using Permount® mounting medium. Additional consecutive slides were stained with human cytokeratin AE1/AE3 (Abcam plc) as a positive control, and human IgG1 isotype as a negative control (AXXORA, LLC).
(§2) All antibodies were biotinylated prior to use and tested independently at various concentrations using human tumor tissues known to react with the antibodies. Primary antibody (NEO-101) was used at about 10 μg/mL, detected with streptavidin-horseradish peroxidase conjugate, and mounted on slides. A positive staining scale ranging from +1 to +5 was applied to the staining results, measured by light microscopy. Tissues stained with NEO-101 were considered positive (+1 to +5) for an average of 79% of the patient tumor samples (30 of 38 of both colorectal and pancreatic cancer biopsies) including the 5 pancreatic tumor samples. Tissues that were negative or considered weak staining by the immunohistochemist were considered negative. These staining results are similar to results from several other studies completed with antibodies using tissue array slides, and both frozen and paraffin-embedded surgical specimens.

The subject of data set [2] is Pancreatic cancer biopsies. The description is as above. The class given is binding, human. As for the experimental part: as §1, §2
The subject of data set [3] is Colo-205 (Colorectal). Put plainly: ADCC 4-hour 111-Indium release assay. The format is cell-based, human. The method, then:
(§3) The NEO-101 antibody was tested for antibody-dependent cell cytotoxicity (ADCC) activity against several colorectal and pancreatic tumor cell targets in vitro. The ADCC assay measures the amount of cell cytotoxicity that an antibody facilitates in a defined time period by the release of radiolabelled cytoplasmic proteins into the culture medium. […] The specific lytic activity was titratable with the number of effector cells in the assay.

Data set [4] has as its system LS174T (Colorectal). Put plainly: ADCC 4-hour 111-Indium release assay. The format is cell-based, human. The method, then: as §3
Data set [5] concerns SW1463 (Colorectal). Put plainly: ADCC 4-hour 111-Indium release assay. The class given is cell-based, human. The method, then:
as §3

The test system of data set [6] is SW620 (Colorectal). Briefly: ADCC 4-hour 111-Indium release assay. The class given is cell-based, human. The method, then: as §3
Data set [7] in a line: Preliminary non-GLP toxicity study. The class given is in vivo, BALB/c mice. As for the experimental part: A preliminary non-GLP toxicity study using a research-grade preparation of NEO-101 was also conducted. Normal BALB/c mice were Injected with a single IV dose of saline, or 3, 10, 30, or 100 mg/kg of NEO-101 (n=3 female mice per group). In-life parameters measured included body weights and clinical observations. Mice were humanely sacrificed 72 hours following the injection and specimens were collected for analysis. Post-mortem parameters included macroscopic examination, blood cell counts, serum chemistries, and histopathological evaluation of selected major organs and tissues. […] No other toxicities were detected in these studies potentially associated with NEO-101, including during histopathological examination of the major organ systems in these mice.

In data set [8] the test system is lung tumor tissue. Put plainly: Immunohistochemistry of lung tumor tissue. The class given is binding. The settings on record: 10 μg/ml biotinylated antibody. The method, then:
Slides were deparaffinized, rehydrated and antigen retrieval was performed. Slides were then stained with 10 μg/ml biotinylated NEO-101 antibody and then streptavidin-HRP was applied for color development. Slides were counter stained with H.E., hydrated and fixed. The results
The specificity of NEO-101 for pancreatic and colorectal tumor tissue was further shown by staining lung tumor tissue. While there was significant binding to these tissues with a commercial antibody that recognizes normal MUC5AC, there was no reactivity of NEO-101 with these lung tumor tissues.

These results are taken from patent US11078245B2, “Colon and pancreas cancer peptidomimetics” (PRECISION BIOLOGICS, INC., priority 2010, dated 2021).

B1: NEO-101: Chimeric NEO-101 antibody, engineered in CHO-DG44 production cell clone 4B7; targets a variant of MUC5AC (protein)
light: QVVLTQSPVIMSASPGEKVTMTCSASSSISYMYWYQQKPGTSPKRWIYDTSKLASGVPARFSGSGSGTSYSLTISNMEAGDAATYYCHQRDSYPWTFGGGTNLEIK
heavy: QVQLKESGPDLVAPSQSLSITCTVSGFSLSKFGVNWVRQPPGKGLEWLGVIWGDGSTSYNSGLISRLSISKENSKSQVFLKLNSLQADDTATYYCVKPGGDYWGHGTSVTVSS
For the molecule B1, the “% Positive by IHC with NEO-1O1” value turned out to be 76% in data set [1] and 100% in data set [2]. The “Positive by IHC, subjects/total” value in data set [1] is recorded as “(25/33)”; in data set [2] it was “(5/5)”. Besides, the “% Specific Killing (±SEM)” value is given as 32.8 ± 2.0% in data set [3] (Effector:Target 12.5:1); 46.4 ± 1.6% in data set [3] (Effector:Target 25:1); 66.7 ± 0.6% in data set [3] (Effector:Target 50:1); 9.5 ± 0.5% in data set [4] (Effector:Target 12.5:1); 18.5 ± 4.1% in data set [4] (Effector:Target 25:1); 26.8 ± 2.9% in data set [4] (Effector:Target 50:1). Also, the “% Specific Killing (±SEM)” value in data set [5] (Effector:Target 12.5:1) stood at 17.9 ± 1.7%; in data set [5] (Effector:Target 25:1), 25.5 ± 0.6%; in data set [5] (Effector:Target 50:1) it was 33.8 ± 1.0%; in data set [6] (Effector:Target 12.5:1), 51.5 ± 0.9%; in data set [6] (Effector:Target 25:1), 61.0 ± 1.8%; in data set [6] (Effector:Target 50:1), 63.7 ± 2.9%. For the same molecule, in data set [7] (2 out of 3 mice that received 100 mg/kg), the “serum aspartate transaminase (AST)” value is “mild, but statistically insignificant elevation”. For the same molecule, the “body weight, blood cell counts, and histopathology of 7 major organs and tissues” value in data set [7] (single IV dose 3, 10, 30 or 100 mg/kg, 72 hours) is given as “no significant changes”. The “reactivity with lung tumor tissues” value in data set [8] is recorded as “no reactivity”.
